# Literature values as cited in publication PMC4184467.
# System: Lys64
# Settings: wild-type enzyme, zinc-bound
substance,measurement,value
Carbonic anhydrase III (CA III) (Homo sapiens),pKa,9.0
